The values below are quoted from earlier work in patent US11963996B2, “Method of treating knee pain” (ORTHOTROPHIX, Inc., priority 2018, dated 2024).

The test system of data set [1] is OA patients. Conditions: human, in vivo; cited from earlier work.
Data set [2] concerns human osteoblastic mesenchymal stem cells. As to conditions: cited from earlier work.
In data set [3] the test system is subjects with knee OA. Conditions: vs placebo, cited from earlier work.

`N#Cc1c(N(CC(=O)[O-])CC(=O)[O-])sc(C(=O)[O-])c1CC(=O)[O-].[Sr+2].[Sr+2]` [strontium ranelate]: the “Risk of myocardial infarction” value in data set [1] is reported as “increase the risk of myocardial infarction”.

Take “rat orthologue: TPX-100 orthologue PDLLVRGDNDVPPFSGDGQHFMH (Rat/Mouse)”: the Tritium-thymidine incorporation result in data set [2] was “promote tritium-thymidine incorporation”.

B1: FGF-18: Fibroblast Growth Factor-18, a.k.a. Sprifermin, candidate DMOAD, a putative chondrocyte growth factor (protein, UniProt O76093 28-207, looked up)
Fibroblast growth factor 18: EENVDFRIHVENQTRARDDVSRKQLRLYQLYSRTSGKHIQVLGRRISARGEDGDKYAQLLVETDTFGSQVRIKGKETEFYLCMNRKGKLVGKPDGTSKECVFIEKVLENNYTALMSAKYSGWYVGFTKKGRPRKGPKTRENQQDVHFMKRYPKGQPELQKPFKYTTVTKRSRRIRPTHPA
modifications: sprifermin
notes: Fibroblast Growth Factor-18, a.k.a; Sprifermin, candidate DMOAD, a putative chondrocyte growth factor
For B1, the “Clinical benefit (WOMAC)” value in data set [3] (24 months) is reported as “no difference in clinical benefit was detected in any treatment group when compared with placebo”. Moreover, the Clinical benefit entry in data set [3] (36 months) is on record as “failed to demonstrate clinical benefit compared with the placebo-treated group”. In addition, in data set [3] (three once-weekly IA injections, repeated at months 6, 12, 18, 24 months), the “Tibiofemoral cartilage thickness by MRI” value is recorded as “dose-dependent increases in tibiofemoral cartilage thickness compared with the placebo group”.
